The values below come from patent US20210275657A1 (BIONTECH US, published 2021).

The target of test [1] is T1, HLA-B08:01 (human).
T1 construct: Stability assay: E. coli-expressed biotinylated heavy chain with 125I-labelled b2m; MS: BAP-tagged HLA in HEK293T cells; Treated as one molecule
Description: pMHC-I dissociation, 125I-b2m, 37C; experiment 2.

Test [2] concerns the target T1, HLA-B08:01. The experiment in a line: competition vs radiolabeled peptide on purified HLA; measured IC50.
Test [3] deals with T1, HLA-B08:01. Description: pMHC-I dissociation, 125I-b2m, 37C; experiment 1.
In test [4] the target is T1, HLA-B08:01. Description: peptide-HLA stability, Example 9.
Test [5] deals with T1, HLA-B08:01. The experiment in a line: pMHC-I dissociation, 125I-b2m, 37C; average of 2.
The target in test [6] is T2, HLA-B07:02 (human).
T2 construct: Stability assay: E. coli-expressed biotinylated heavy chain with 125I-labelled b2m; MS: BAP-tagged HLA in HEK293T cells; Treated as one molecule
Description: pMHC-I dissociation, 125I-b2m, 37C; experiment 2.

In test [7] the target is T2, HLA-B07:02. Description: competition vs radiolabeled peptide on purified HLA; IC50 corrected for peptide concentration.
Test [8] deals with T2, HLA-B07:02. The experiment in a line: peptide-HLA affinity, Example 9.
The target of test [9] is T2, HLA-B07:02. Description: competition vs radiolabeled peptide on purified HLA; measured IC50.
Test [10] concerns the target T2, HLA-B07:02. The experiment in a line: pMHC-I dissociation, 125I-b2m, 37C; experiment 1.
Test [11] deals with T2, HLA-B07:02. The experiment in a line: peptide-HLA stability, Example 9.
Test [12] addresses T2, HLA-B07:02. Description: pMHC-I dissociation, 125I-b2m, 37C; average of 2.
Test [13] deals with T3, HLA-A24:02 (human).
T3 construct: Construct not described
The experiment in a line: peptide-HLA stability, Example 36.

The target in test [14] is T3, HLA-A24:02. The experiment in a line: peptide-HLA affinity, Example 36.
Test [15] deals with T4, HLA-A03:01 (human).
T4 construct: Construct not described
The experiment in a line: peptide-HLA stability, Example 36.

Test [16] deals with T5, HLA-A01:01 (human).
T5 construct: Construct not described
Description: peptide-HLA stability, Example 36.

Test [17] has as its target T4, HLA-A03:01. The experiment in a line: peptide-HLA affinity, Example 36.
Test [18] addresses T6, HLA-A11:01 (human).
T6 construct: Construct not described
Description: peptide-HLA affinity, Example 36.

For test [19], the target named is T5, HLA-A01:01. Description: peptide-HLA affinity, Example 36.
Test [20] deals with T4, HLA-A03:01. Description: peptide-HLA affinity, Example 9.
For test [21], the target named is T6, HLA-A11:01. Description: peptide-HLA affinity, Example 9.
Test [22] concerns the target T4, HLA-A03:01. Description: peptide-HLA stability, Example 9.
In test [23] the target is T6, HLA-A11:01. Description: peptide-HLA stability, Example 9.
Test [24] deals with T7, HLA-A02:01 (human).
T7 construct: Stability assay: E. coli-expressed biotinylated heavy chain with 125I-labelled b2m
Description: pMHC-I dissociation, 125I-b2m, 37C; experiment 2.

Test [25] addresses T7, HLA-A02:01. Description: competition vs radiolabeled peptide on purified HLA; IC50 corrected for peptide concentration.
For test [26], the target named is T7, HLA-A02:01. The experiment in a line: peptide-HLA affinity, Example 9.
In test [27] the target is T7, HLA-A02:01. Description: competition vs radiolabeled peptide on purified HLA; measured IC50.
Test [28] deals with T7, HLA-A02:01. Description: pMHC-I dissociation, 125I-b2m, 37C; experiment 1.
Test [29] concerns the target T7, HLA-A02:01. Description: peptide-HLA stability, Example 9.
The target in test [30] is T7, HLA-A02:01. Description: pMHC-I dissociation, 125I-b2m, 37C; average of 2.
Test [31] deals with T3, HLA-A24:02. Description: peptide-HLA affinity, Example 9.
Test [32] deals with T3, HLA-A24:02. The experiment in a line: peptide-HLA stability, Example 9.

Regarding FLKAESKIMF, the half-life with HLA-B08:01 [1], in the test with HLA-B08:01 [3] and with HLA-B08:01 [5] was 0 h throughout. Moreover, the IC50 (in general, the concentration at which inhibition is half-maximal) in the test with HLA-B08:01 [2] was found to be 90 nM. Also, the “Observed MHC stability” value with HLA-B08:01 [4] stood at 0 h.

LHFCRSSIM: the half-life with HLA-B08:01 [1], with HLA-B08:01 [3] and with HLA-B08:01 [5] was 0 h each time. This molecule also came in with an IC50 with HLA-B08:01 [2] of 167 nM. The “Observed MHC stability” value with HLA-B08:01 [4] was determined as 0 h.

Regarding KPKRDGYMF, the results for the half-life with HLA-B07:02 [6], with HLA-B07:02 [10] and in the test with HLA-B07:02 [12] were 9 h, 8.3 h and 8.6 h, respectively. The IC50 with HLA-B07:02 [7] and with HLA-B07:02 [9] was 28.2 nM in each case. Further, the “Observed MHC affinity” value with HLA-B07:02 [8] was found to be 28 nM. Besides, the “Observed MHC stability” value with HLA-B07:02 [11] was 8.6 h.

Turning to KPKRDGYMFL, the half-life with HLA-B07:02 [6], in the test with HLA-B07:02 [10] and in the test with HLA-B07:02 [12] was 3.3 h each time. The IC50 with HLA-B07:02 [7] was found to be 98.1 nM; with HLA-B07:02 [9], 115 nM. The “Observed MHC affinity” value with HLA-B07:02 [8] was determined as 98 nM. Also, in the test with HLA-B07:02 [11], the “Observed MHC stability” value came out at 3.3 h.

For IMKPKRDGYM, the half-life with HLA-B08:01 [1], with HLA-B08:01 [3] and with HLA-B08:01 [5] was 0.4 h in each case. Moreover, in the test with HLA-B08:01 [2], the concentration for half-maximal inhibition (IC50) stood at 40.2 nM. Besides, the “Observed MHC stability” value in the test with HLA-B08:01 [4] amounted to 0.4 h.

As for EPHLALQPL, the “Observed MHC stability” value amounted to 7.2 h with HLA-B07:02 [11] and 0 h with HLA-B08:01 [4].

For the molecule EYMANGSLL (also called BTK C481S mutant peptide), the “Stability (1/2 hr)” value in the test with HLA-A24:02 [13] was determined as 5.72 h. The molecule further showed an Affinity with HLA-A24:02 [14] of 4.96 nM.

Take MANGSLLNY (also called BTK C481S mutant peptide): the “Stability (1/2 hr)” value was 0.238 h with HLA-A03:01 [15] and 0.216 h with HLA-A01:01 [16]. Moreover, the figures for the Affinity with HLA-A03:01 [17], with HLA-A11:01 [18] and with HLA-A01:01 [19] were 35.6 nM, 536 nM and 439 nM, respectively.

Regarding FLKAESKIM, the half-life (commonly the time needed for the level to fall by half in the phase considered) with HLA-B08:01 [1] is 1.5 h; in the test with HLA-B08:01 [3] it was 0.8 h; with HLA-B08:01 [5], 1.2 h. Besides, the “Observed MHC stability” value with HLA-B08:01 [4] came out at 1.2 h.

For the molecule QPVLWTTPPL, the “Observed MHC affinity” value with HLA-B07:02 [8] was 109 nM. Moreover, the “Observed MHC stability” value in the test with HLA-B07:02 [11] was 1.4 h.

For the molecule KIMFATLQR, the “Observed MHC affinity” value worked out at 3 nM in the test with HLA-A03:01 [20] and 23 nM with HLA-A11:01 [21]. For the same molecule, the “Observed MHC stability” value with HLA-A03:01 [22] is 5.6 h; in the test with HLA-A11:01 [23], 8.9 h.

FATLQRSSL: the half-life stood at 0.6 h with HLA-B07:02 [6]; 0 h in the test with HLA-B08:01 [1]; 0.7 h with HLA-B07:02 [10]; 0 h with HLA-B08:01 [3]; 0.7 h with HLA-B07:02 [12]; 0 h in the test with HLA-B08:01 [5]. Moreover, the IC50 in the test with HLA-B07:02 [7] stood at 14 nM; with HLA-B07:02 [9] it was 14 nM; with HLA-B08:01 [2], 27.5 nM. Besides, the “Observed MHC affinity” value with HLA-B07:02 [8] is 14 nM. In addition, the “Observed MHC stability” value with HLA-B07:02 [11] is 0.7 h; in the test with HLA-B08:01 [4], 0 h.

On to YMFLKAESK, for which the “Observed MHC affinity” value with HLA-A03:01 [20] came out at 80 nM; with HLA-A11:01 [21], 1730 nM. Further, the “Observed MHC stability” value in the test with HLA-A03:01 [22] worked out at 0.3 h; in the test with HLA-A11:01 [23], 0 h.

Regarding GPPARVPAV, the half-life in the test with HLA-B07:02 [6] turned out to be 1.8 h; with HLA-B07:02 [10], 1.5 h; with HLA-B07:02 [12], 1.6 h. Also, the IC50 with HLA-B07:02 [7] amounted to 221 nM; in the test with HLA-B07:02 [9] it was 282 nM. In addition, the “Observed MHC affinity” value with HLA-B07:02 [8] worked out at 221 nM. Moreover, the “Observed MHC stability” value in the test with HLA-B07:02 [11] turned out to be 1.6 h.

In the case of TLQRSSLWCL, the half-life with HLA-A02:01 [24], in the test with HLA-A02:01 [28] and with HLA-A02:01 [30] was 0.5 h each time. The IC50 in the test with HLA-A02:01 [25] came out at 118 nM; in the test with HLA-A02:01 [27], 281 nM. Further, the “Observed MHC affinity” value with HLA-A02:01 [26] amounted to 118 nM. The “Observed MHC stability” value with HLA-A02:01 [29] was 0.5 h.

Take YMANGSLLNY (also called BTK C481S mutant peptide): the entries for the “Stability (1/2 hr)” value in the test with HLA-A03:01 [15] and with HLA-A01:01 [16] were 0.279 h and 0.866 h, respectively. In addition, the Affinity was 95.9 nM with HLA-A03:01 [17], 974 nM with HLA-A11:01 [18] and 13.2 nM with HLA-A01:01 [19].

With VLWTTPPLQH, the “Observed MHC affinity” value came to 16 nM with HLA-A03:01 [20] and 4540 nM with HLA-A11:01 [21]. Moreover, the results for the “Observed MHC stability” value with HLA-A03:01 [22] and with HLA-A11:01 [23] were 0.3 h and 0 h, respectively.

In the case of VLPEPHLAL, in the test with HLA-A02:01 [26], the “Observed MHC affinity” value amounted to 16 nM. In addition, the “Observed MHC stability” value with HLA-A02:01 [29] turned out to be 1.1 h.

ESKIMFATL: the values for the half-life with HLA-B08:01 [1], in the test with HLA-B08:01 [3] and with HLA-B08:01 [5] were 1.6 h, 1 h and 1.3 h, respectively. The molecule further registered an IC50 with HLA-B08:01 [2] of 23.3 nM. Besides, the “Observed MHC stability” value with HLA-B08:01 [4] was found to be 1.3 h.

Turning to AIQPVLWTT, the “Observed MHC affinity” value in the test with HLA-A02:01 [26] came out at 8 nM. Also, the “Observed MHC stability” value in the test with HLA-A02:01 [29] was 1.5 h.

MFLKAESKI: in the test with HLA-A24:02 [31], the “Observed MHC affinity” value is 332 nM. For the same molecule, the “Observed MHC stability” value in the test with HLA-A24:02 [32] turned out to be 0.2 h.

As to MFATLQRSSL, the half-life with HLA-B07:02 [6], in the test with HLA-B08:01 [1], with HLA-B07:02 [10], with HLA-B08:01 [3], with HLA-B07:02 [12] and with HLA-B08:01 [5] was 0 h each time. Also, the IC50 in the test with HLA-B07:02 [7] was determined as 267 nM; in the test with HLA-B07:02 [9], 350 nM. Besides, the “Observed MHC stability” value with HLA-B07:02 [11] and with HLA-B08:01 [4] was 0 h each time.
